Consider two molecules from US20080181886A1, “Polypeptides That Bind Baff And/Or April” (Genentech, Inc., priority 2004, published 2008).

Experiment [1] concerns the target T1, BAFF (Homo sapiens, UniProt Q9Y275).
T1 construct: made in house
The experiment can be described thus: Competitive ELISA, BAFF. The format is binding. The note with it: data not shown. For orientation: In an ELISA, binding on a coated surface is turned into a signal by an enzyme label.

The target of experiment [2] is T2, APRIL (Mus musculus, UniProt Q9D777).
T2 construct: made in house
T2 sequence (Q9D777 105-241): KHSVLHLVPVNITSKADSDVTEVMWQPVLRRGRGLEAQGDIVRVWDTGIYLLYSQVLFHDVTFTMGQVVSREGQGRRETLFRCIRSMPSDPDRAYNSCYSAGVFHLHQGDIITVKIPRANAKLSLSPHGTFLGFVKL
Kind of experiment: Competitive ELISA, APRIL. The format is binding, murine. Conditions: data not shown.

The target of experiment [3] is T1, BAFF. The experiment can be described thus: Competitive surface plasmon resonance, BAFF binding to immobilized BCMA-Fc. The note with it: competition with immobilized BCMA-Fc. An excerpt: (§1) Surface plasmon resonance (SPR) measurements on a BIAcore 3000 instrument (Pharmacia Biosensor) were used to measure binding affinities of receptors to immobilized APRIL and BAFF by competition binding. […] In these experiments, receptors in solution competed for binding of ligand in solution at room temperature with immobilized BCMA-Fc. BCMA-Fc was coupled to flow cell 2 of a CM4 sensor chip, using the amine coupling protocol supplied by the manufacturer, at a high density (4500 resonance units) so that the initial rate of binding was linearly dependent on the concentration of free ligand. In all experiments flow cell 1 was ethanolamine-blocked and used as the reference cell. Washing with 10 mM HCl regenerated flow cells between sample injections. In order to determine the ligand concentration necessary to obtain the optimal for competition experiments, a preliminary binding study was performed for each ligand where two-fold dilutions of the ligand ranging from 400 nM to 6.25 nM were injected over the BCMA-Fc surface. […] The IC50 values were calculated using a four-parameter curve fit (y=((m1−m4)/(1+(m0/m3)̂m2))+m4) of the initial binding rates for the receptor/control (Vi/Vo) as a function of receptor concentration.
On the technique in general: Surface plasmon resonance follows binding to a sensor surface in real time, without labels.

The target of experiment [4] is T2, APRIL. The experiment can be described thus: Competitive surface plasmon resonance, APRIL binding to immobilized BCMA-Fc. Further details: species or system murine. The note with it: competition with immobilized BCMA-Fc.
Text: as §1

For experiment [5], the system named is NF-κB. The experiment can be described thus: NF-κB ELAM-luciferase reporter assay in co-transfected 293T cells. The experiment is classed as cell-based, Human. Conditions: 293T cells co-transfected with ligand and receptor; 20 hr after transfection. On the procedure:
Human 293T cells were co-transfected with the indicated amounts of expression plasmids along with 250 ng of ELAM-luciferase reporter gene plasmid and 25 ng pRL-TK. 20 hr after transfection, reporter gene activity was determined with the dual-luciferase reporter assay system (Promega).
(A reporter such as luciferase makes a cellular process visible.)

T1 sequence (Q9Y275 82-285 limits assumed): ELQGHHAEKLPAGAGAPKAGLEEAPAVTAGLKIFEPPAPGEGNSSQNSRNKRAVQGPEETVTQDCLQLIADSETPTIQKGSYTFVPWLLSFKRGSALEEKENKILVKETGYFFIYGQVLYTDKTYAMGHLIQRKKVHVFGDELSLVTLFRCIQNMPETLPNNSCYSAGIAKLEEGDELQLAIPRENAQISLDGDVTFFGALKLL

B1: TACI_d1d2: residues 21-116 of the TACI extracellular domain (both CRDs) with a C-terminal His-tag (protein, UniProt O14836 21-116, looked up, fragment)
chain: FPQGLWTGVAMRSCPEEQYWDPLLGTCMSCKTICNHQSQRTCAAFCRSLSCRKEQGKFYDHLLRDCISCASICGQHPKQCAYFCENKLRSPVNLPP
modifications: extracellular domain C-terminal His-tag
notes: residues 21-116 of the TACI extracellular domain (both CRDs) with a C-terminal His-tag
For B1, the “binding to BAFF, in words” value in experiment [1] is reported as “no improvement in binding”. In experiment [2], the “binding to APRIL, in words” value is given as “no improvement in binding”. For the same molecule, in experiment [3], the “affinity for BAFF, comparison in words” value is “did not confer additional affinity”. For the same molecule, the “affinity for APRIL, comparison in words” value in experiment [4] is reported as “did not confer additional affinity”.

B2: shortTACI: TACI splice variant: first 20 residues, one tryptophan in place of the 47 residues encoding CRD1, then the rest of the protein (protein)
chain: MSGLGRSRRGGRSRVDQEERWSLSCRKEQGKFYDHLLRDCISCASICGQHPKQCAYFCENKLRSPVNLPPELRRQRSGEVENNSDNSGRYQGLEHRGSEASPALPGLKLSADQVALVYSTLGLCLCAVLCCFLVAVACFLKKRGDPCSCQPRSRPRQSPAKSSQDHAMEAGSPVSTSPEPVETCSFCFPECRAPTQESAVTPGTPDPTCAGRWGCHTRTTVLQPCPHIPDSGLGIVCVPAQEGGPGA
Consider B2, for which the “NF-κB activation by APRIL or BAFF” value in experiment [5] is given as “capable of mediating NF-κB activation”.
